Measured values: US20210032320A1

How the values were obtained:
[1] = target: NKp44 isoform 1 (NKp44-1) on NK92-44-1 cells (Homo sapiens (Human)) (UniProt O95944); experiment: cell-based or functional assay
[2] = target: NKp44 isoform 3 (NKp44-3) on NK92-44-3 cells (UniProt O95944); experiment: cell-based or functional assay
[3] = target: NKp44 isoform 2 (NKp44-2) on NK92-44-2 cells (UniProt O95944); experiment: cell-based or functional assay
[4] = target: endogenous cellular PCNA (cell lysates, permeabilised cells, FFPE tissue) (human) (UniProt P12004); experiment: image stream of HeLa cells, similarity of the AF488 antibody stain to the 7AAD nuclear stain; 190 of 3950 cells
Sequence of UniProt P12004 (P12004 whole entry): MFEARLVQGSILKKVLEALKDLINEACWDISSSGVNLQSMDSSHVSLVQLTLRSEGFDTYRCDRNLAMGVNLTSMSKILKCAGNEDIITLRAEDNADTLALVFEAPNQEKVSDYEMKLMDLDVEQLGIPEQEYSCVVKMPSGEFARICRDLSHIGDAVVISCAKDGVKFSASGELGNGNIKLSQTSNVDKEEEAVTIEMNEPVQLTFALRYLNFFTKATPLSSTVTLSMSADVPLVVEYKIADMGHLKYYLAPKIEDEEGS

relative amount of F-actin accumulating at the immune synapse [1] [%]	relative amount of F-actin accumulating at the immune synapse [2] [%]	relative amount of F-actin accumulating at the immune synapse [3] [%]	%Gated in the gate 'Cytoplasmic PCNA' [4] [%]	Substance
-22.6	4.6	6.9	–	PCNA over-expressed in HeLa target cells (from UniProt P12004 1-261)
–	–	–	4.81	commercial anti PCNA mAb clone PC10 (antibody)
